The values below come from patent US8546353B2, “Compounds and combinations” (priority 2010, dated 2013).

For series [1], the system named is hematopoietic progenitor cells (HPCs) in the bone marrow. The series is described as follows: CFU assay on bone marrow mononuclear cells. The class given is in vivo, C57BL/6J mice. The following applies: single 25 μg s.c. at day 0, samples at day 5, 1×10^5 mononuclear cells. As for the experimental part:
(§1) Adult (8-10 weeks) female, age-matched C57BL/6J (Jackson stock nr 000664, the Charles River Laboratories) CD45.2 mice were used in the in vivo mobilization experiments. The acclimatization period was always at least 7 days before the experiments. The animals were individually identified by ear and tail numbering and were housed in a Scantainer (Scanbur A/S, Karlslunde, Denmark) in Makrolon III cages. The animal room temperature was 21±2° C. and humidity was between 40-60%. Lightning was artificial, 12 h light and 12 h dark. The mice were provided with irradiated fodder and normal tap water ad libitum. Average weight of all animals in the experiments was 18.8±1.5 g. No formal randomization or grouping was done. Animals were randomly allocated to the study groups. […]
Myeloid hematopoietic progenitor cells were further enumerated by the colony forming unit (CFU/CFC) assay. Progenitor cells that are restricted in their lineage potential and that have limited self-renewal capability can be detected in colony-forming cell (CFC) assays using semisolid media such as methylcellulose, agar or collagen. Progenitors that read out in culture assays can either be multipotent, e.g. capable of generating progeny of multiple blood cell types, or restricted to one or two lineages, e.g. erythrocytes, granulocytes, monocyte/macrophages or platelets. […]

Series [2] has as its system SLAM+ cells (CD150+CD48−CD45+) in peripheral blood. Description: SLAM immunophenotyping by flow cytometry. The class given is in vivo, C57BL/6J mice. To be noted: pegfilgrastim 25 μg s.c. day 0; combination + single 500 μg i.v. one hour before sampling (FIG. 14). As for the experimental part:
as §1, with “g.” for “g. No formal randomization or grouping was done. Animals were randomly allocated to the study groups.”
The enrichment of long-term repopulating (LTR) hematopoietic stem cells was detected with representation of SLAM markers. […] CD45+ cells expressing CD150, but not CD48 cell surface markers were determined as a population highly enriched with LTR hematopoietic stem cells.
Although mobilization of HPCs may be of use for short-term repopulation in clinical settings, long-term repopulation and reconstitution of the hematopoietic cell system in a transplant recipient demands the presence of mobilized long-term repopulating hematopoietic stem cells (LTR-HSCs). […] The presence of SLAM (CD150+CD48−CD45+) positive cells in mouse blood was determined by flow cytometry after vehicle, pegfilgrastim or pegfilgrastim +6-O-S LMW HA dosing. […]
(In flow cytometry, cells or beads pass a laser one at a time.)

Series [3] deals with white blood cell (WBC) contents in peripheral blood. Description: Leukocyte content in blood, automated blood cell counter Sysmex XT-2000i. The class given is in vivo, C57BL/6J mice. The following applies: single dose (HA derivatives 500 μg i.v.; pegfilgrastim 25 μg s.c.); 5 days (FIG. 2C). As for the experimental part: (§2) Adult (8-10 weeks) female, age-matched C57BL/6J (Jackson stock nr 000664, the Charles River Laboratories) CD45.2 mice were used in the in vivo mobilization experiments. The acclimatization period was always at least 7 days before the experiments. The animals were individually identified by ear and tail numbering and were housed in a Scantainer (Scanbur A/S, Karlslunde, Denmark) in Makrolon III cages. The animal room temperature was 21±2° C. and humidity was between 40-60%. Lightning was artificial, 12 h light and 12 h dark. The mice were provided with irradiated fodder and normal tap water ad libitum. Average weight of all animals in the experiments was 18.8±1.5 g. No formal randomization or grouping was done. Animals were randomly allocated to the study groups. All animals were weighed before the first dosing and in the end of each study.
(§3) Sterile filtered PBS (pH 7.2) served as vehicle in all studies and was injected intravenously in the tail vein in similar volumes (50 or 100 μl) and time-points as the other test items within each study. […]
(§4) The leukocyte, erythrocyte and platelet contents were determined for all blood samples by automated blood cell counter Sysmex XT-2000i by diluting the mouse blood 1:4 with 0.9% NaCl.
(§5) Complete blood counts (numbers of white blood cells, mature red blood cells and platelets) of mouse peripheral blood were determined with automated blood cell counter.

In series [4] the test system is hematopoietic cell populations of mouse peripheral blood. The series is described as follows: Immunophenotypic profiling of peripheral blood by flow cytometry. The format is in vivo, C57BL/6J mice. The following applies: pegfilgrastim 25 μg s.c. −5 days. As for the experimental part:
as §2
(§6) Sterile filtered PBS (pH 7.2) served as vehicle in all studies and was injected intravenously in the tail vein in similar volumes (50 or 100 μl) and time-points as the other test items within each study. Recombinant pegylated granulocyte-colony stimulatory factor (G-CSF), pegfilgrastim (Neulasta™, Amgen), with the stock concentration 10 mg/ml, was diluted immediately before the injections in sterile filtered PBS (pH 7.2) to yield a 0.25-0.5 mg/ml dosing solution. The animals obtained 25 μg pegfilgrastim (Neulasta™) subcutaneously at a dose volume of 50 or 100 μl on study day 0. The LMW hyaluronic acid derivatives HA and 6-O-S HA were prepared for injections into sterile filtered PBS in 5-10 mg/ml solutions and injected intravenously in the tail vein in dose volumes of 50 or 100 μl yielding 500 μg doses/mouse.
The LMW hyaluronic acid (HA) derivatives were tested for capability to mobilize hematopoietic stem and progenitor cells to peripheral blood after 500 μg i.v. injections at the following time-points: 4h, 1d, 2d, 3d and 5d post-injections. Repetitive dosing was tested with daily 500 μg i.v. injections and sampling was done either on experimental days 2 (after 3 doses) or 5 (after 6 doses) after the first injection on day 0. Abnormal clinical signs or mortality was not observed with the LMW HA derivatives with 500 μg doses. The LMW HA derivatives were also tested in combination with a single dose of pegfilgrastim (Neulasta™). In combinatorial G-CSF+LMW HA studies, pegfilgrastim was always injected s.c. at experimental day 0 and the LMW HA derivatives were administered i.v. as • a) single doses of 500 μg at experimental day 3, • b) single doses of 500 μg 1 or 4 hours before sampling, or • c) as repetitive doses of 500 μg daily from experimental day 0-5 (in total 6 doses).
Flow cytometric analysis was performed on FACSAria (Becton Dickinson Biosciences) with a 488-nm argon laser for (PE, FITC and PE-Cy7), a 633-nm hene laser for (APC and APC-Cy7). Fluorescense was measured using 530/30-nm (FITC), 585/42-nm (PE), 780/60-nm (PE-Cy7), 660/20-nm (APC) and 780/60 (APC-Cy7) bandpass filters.
Peripheral mouse blood was diluted 1:5 in 0.9% NaCl (Baxter). Fluorescence labels (ebiosciences, except APC-CD45 BD Biosciences): 0.04 μg phycoerythrin (PE)-conjugated CD11c (dendritic cells; clone N418; cat#12-0114), fluorescein isothiocyanate (FITC)-conjugated 0.3 μg TER-119 (erythroid cells; clone TER-119; cat#11-5921), 0.1 allophycocyanin (APC)-conjugated CD314 (natural killer cells; clone CX5; 17-5882), 0.08 μg APC-Cyanine 7 (Cy7)-conjugated CD3e (T cells; clone 17A2; cat#27.0032) and 0.04 μg PE-Cy7 conjugated CD45R (B cells; RA3-6B2; 25-0452) were combined in one tube and 0.08 μg PE-conjugated CD115 (for monocytes and macrophages; clone AFS98; cat#12-1152), 0.2 μg FITC-conjugated-CD41 (megakaryocytes and hematopoietic progenitors; clone MWReg30; cat#11-0411), 0.08 μg APC-conjugated CD45 (leukocytes; clone 30-F11; cat#559864) and 0.03 μg PE-Cy7-conjugated LY-6G (neutrophils; clone RB6-8C5; cat#25-5931) were combined in another tube, incubated for 30 minutes on ice protected from light. […]

The test system of series [5] is circulating hematopoietic progenitor cells (HPCs) in peripheral blood. Description: Peripheral blood stem cell mobilization, colony forming unit (CFU) assay on peripheral blood mononuclear cells. The class given is in vivo, C57BL/6J mice. As for the experimental part: as §2, §6
The LMW hyaluronic acid (HA) derivatives were tested for capability to mobilize hematopoietic stem and progenitor cells to peripheral blood after 500 μg i.v. injections at the following time-points: 4h, 1d, 2d, 3d and 5d post-injections. Repetitive dosing was tested with daily 500 μg i.v. injections and sampling was done either on experimental days 2 (after 3 doses) or 5 (after 6 doses) after the first injection on day 0. Abnormal clinical signs or mortality was not observed with the LMW HA derivatives with 500 μg doses. […]
Mononuclear cells were isolated by carefully overlaying 3 ml Ficoll-Paque® (GE Healthcare) with peripheral blood diluted 1:2 in phosphate buffered saline (PBS)-2 mM EDTA. […] Mononuclear cell yields were counted using a Bürker chamber.
Myeloid hematopoietic progenitor cells were further enumerated by the colony forming unit (CFU/CFC) assay. Progenitor cells that are restricted in their lineage potential and that have limited self-renewal capability can be detected in colony-forming cell (CFC) assays using semisolid media such as methylcellulose, agar or collagen. […]

Series [6] relates to spleen. Description: Spleen weights after mobilization studies. The following applies: 25 μg s.c. The format is in vivo. As for the experimental part:
as §2
Sterile filtered PBS (pH 7.2) served as vehicle in all studies and was injected intravenously in the tail vein in similar volumes (50 or 100 μl) and time-points as the other test items within each study. Recombinant pegylated granulocyte-colony stimulatory factor (G-CSF), pegfilgrastim (Neulasta™, Amgen), with the stock concentration 10 mg/ml, was diluted immediately before the injections in sterile filtered PBS (pH 7.2) to yield a 0.25-0.5 mg/ml dosing solution. […]

Series [7] has as its system red blood cell (RBC) contents in peripheral blood. The series is described as follows: Erythrocyte content in blood, automated blood cell counter Sysmex XT-2000i. The format is in vivo, C57BL/6J mice. The following applies: 25 μg s.c. As for the experimental part: as §2, §3, §4, §5

“Also recorded” adds a separate entry of the source.

B1: pegfilgrastim (protein, chains of the INN, looked up)
chain: TPLGPASSLPQSFLLKCLEQVRKIQGDGAALQEKLCATYKLCHPEELVLLGHSLGIPWAPLSSCPSQALQLAGCLSQLHSGLFLYQGLLQALEGISPELGPTLDTLQLDVADFATTIWQQMEELGMAPALQPTQGAMPAFASAFQRRAGGVLVASHLQSFLEVSYRVLRHLAQP
modifications: N-terminal methionine, PEG
Consider B1, for which, in series [1], the “number of HPCs in the bone marrow, decrease” value was “over 2 fold”. For the same molecule, the “levels of circulating SLAM+ cells (CD150+CD48−CD45+)” value in series [2] was “dramatically increased”. The “WBC counts 5 days after single dose” value in series [3] is “remained high”. Besides, in series [4] (combination + 500 μg i.v. 1 hour before sampling (FIG. 11A), listed as G-CSF), the “levels of circulating monocytes, neutrophils and eosinophils (MNEs) as a pool” value is “robust increase; also recorded: dramatically increased”. The “granulocytes within the MNEs” value in series [4] (combination + 500 μg i.v. 1 hour before sampling (FIG. 11B)) is “proliferated”. In addition, the “levels of monocytes and macrophages as a pool” value in series [4] (combination + 500 μg i.v. 1 hour before sampling (FIG. 11C)) is on record as “decreased”. Moreover, the “levels of CD45+CD115+ progenitors” value in series [4] (combination + 500 μg i.v. 1 hour before sampling (FIG. 12A)) is given as “increased”. For the same molecule, in series [4] (combination + 500 μg i.v. 1 hour before sampling (FIG. 12B)), the “levels of CD45+CD41+ progenitors” value is “decreased from control levels”. In series [4] (combination + 500 μg i.v. 1 hour before sampling (FIG. 12C)), the “levels of Ter-119+ proerythroblasts” value is “decrease”. Besides, in series [4] (combination + 500 μg i.v. 1 hour before sampling (FIG. 12D)), the “levels of megakaryocytes and platelets” value was “decreased levels of megakaryocytes and platelets”. The “levels of peripheral blood lymphocytes” value in series [4] (combination + 500 μg i.v. 1 hour before sampling (FIG. 13A)) is on record as “increased”. Moreover, the “CD3+ T-cells within the lymphocyte population” value in series [4] (combination + 500 μg i.v. 1 hour before sampling (FIG. 13B)) is recorded as “increase”. Further, in series [4] (combination + 500 μg i.v. 1 hour before sampling (FIG. 13C)), the “NK (CD314+) cell levels” value is recorded as “remained unaltered”. Further, the “CD45R+ B-cells within the lymphocyte population” value in series [4] (combination + 500 μg i.v. 1 hour before sampling (FIG. 13D)) is “decrease”. Further, the “mean CFU colonies” value in series [5] (Neulasta 25 μg s.c. day 0, sampling day 5, combination: 500 μg i.v. 1 hour before sampling (FIG. 10A)) is 18.8 colonies/10^5 mononuclear cells. For the same molecule, the “time of peak of HPC mobilization after s.c. injection” value in series [5] (single 25 μg s.c.) was 5 days. The “number of circulating HPCs in mouse peripheral blood, increase over background” value in series [5] (single 25 μg s.c. at day 0, samples at day 5, CFU, 1×10^5 mononuclear cells) was 40-50 fold. For the same molecule, in series [5] (single 25 μg s.c. injection (FIG. 9A)), the “mobilization of circulating HPCs” value is recorded as “robust mobilization of circulating HPCs”. Further, the “spleen swelling 3 days after single s.c. injection” value in series [6] (3 days (FIG. 8A left panel)) is given as “evident”. The “spleen swelling two days after s.c. injection” value in series [6] (two days) is “evident”. For the same molecule, in series [7] (2 days), the “numbers of mature RBC 2 days after s.c. injection” value is “elevate the numbers of mature RBC”. The “RBC elevation 5 days after s.c. injection” value in series [7] (5 days, occasionally seen (FIG. 4C)) is “normalize back to control levels”.
